Laboratory results published in patent US20190048049A1 (CERENIS THERAPEUTICS, published 2019).
Ends that are not written are not given here.

Target: T1, ApoA-I (human, UniProt P02647 25-267)
T1 construct: Stands in Cargomers as a monomer or multimer (1-8 molecules); also called apolipoprotein A-I; ApoA1
Assay: size exclusion chromatography of ApoA-I:M30 Cargomers, with increased temperature

T1 sequence (P02647 25-267 limits assumed): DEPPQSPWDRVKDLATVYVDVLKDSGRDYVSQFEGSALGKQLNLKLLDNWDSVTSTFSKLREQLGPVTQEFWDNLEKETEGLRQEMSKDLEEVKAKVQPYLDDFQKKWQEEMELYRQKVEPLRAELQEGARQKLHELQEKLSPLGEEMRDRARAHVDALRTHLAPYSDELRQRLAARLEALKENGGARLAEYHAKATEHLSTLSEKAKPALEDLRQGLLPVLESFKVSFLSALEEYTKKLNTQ

B1: M30 tumor antigen peptide coupled to PDP-PE lipid (peptide)
peptide: CSSVDWENVSPELNSTDQ
modifications: also: reacted with PDP-PE lipid, residue of attachment not given here
notes: Lipid-anchored peptide cargo of ApoA-I Cargomers (ApoA-I:TA molar ratios 1:2 and 1:4); also called TA peptide M30
Question: Does B1 bind?
Answer: binds
